From PMC12394548
Each block holds one binder with its values, some of them ahead of it.

Target: valosin-containing protein (VCP)/p97 (UniProt P55072)
Sequence (P55072 whole entry): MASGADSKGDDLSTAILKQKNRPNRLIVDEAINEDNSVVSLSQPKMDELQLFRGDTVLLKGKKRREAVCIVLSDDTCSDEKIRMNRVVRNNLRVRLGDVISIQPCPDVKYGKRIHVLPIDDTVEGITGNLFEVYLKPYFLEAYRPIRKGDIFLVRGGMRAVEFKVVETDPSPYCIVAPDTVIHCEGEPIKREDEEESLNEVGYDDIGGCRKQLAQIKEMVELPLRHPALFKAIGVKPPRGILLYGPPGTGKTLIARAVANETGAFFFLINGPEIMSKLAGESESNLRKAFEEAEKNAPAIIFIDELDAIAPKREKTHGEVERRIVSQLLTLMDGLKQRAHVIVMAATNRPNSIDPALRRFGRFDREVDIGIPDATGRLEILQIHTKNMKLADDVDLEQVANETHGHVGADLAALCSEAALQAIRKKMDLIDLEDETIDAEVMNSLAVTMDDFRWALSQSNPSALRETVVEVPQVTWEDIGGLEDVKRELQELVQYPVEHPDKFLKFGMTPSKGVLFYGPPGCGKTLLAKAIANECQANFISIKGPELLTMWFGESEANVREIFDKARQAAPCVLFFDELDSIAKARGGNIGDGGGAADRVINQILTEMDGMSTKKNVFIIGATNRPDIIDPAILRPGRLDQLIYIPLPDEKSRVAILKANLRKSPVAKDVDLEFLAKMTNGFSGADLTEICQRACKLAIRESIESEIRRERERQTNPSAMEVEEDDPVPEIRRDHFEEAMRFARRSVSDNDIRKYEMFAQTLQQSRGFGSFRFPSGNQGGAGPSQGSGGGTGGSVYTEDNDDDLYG

initial velocity of Ub-Rho hydrolysis by VCPIP1^(ΔVCPID ΔUBX) (62.5 nM enzyme) in the presence of VCP (v0 = 656.0 RFU/min without VCP); no effect of VCP: 562 RFU/min
B1: VCPIP1^(ΔVCPID ΔUBX) (aa Δ589-666, Δ773-852) (enzyme)
chain: MSQPPPPPPPLPPPPPPPEAPQTPSSLASAAASGGLLKRRDRRILSGSCPDPKCQARLFFPASGSVSIECTECGQRHEQQQLLGVEEVTDPDVVLHNLLRNALLGVTGAPKKNTELVKVMGLSNYHCKLLSPILARYGMDKQTGRAKLLRDMNQGELFDCALLGDRAFLIEPEHVNTVGYGKDRSGSLLYLHDTLEDIKRANKSQECLIPVHVDGDGHCLVHAVSRALVGRELFWHALRENLKQHFQQHLARYQALFHDFIDAAEWEDIINECDPLFVPPEGVPLGLRNIHIFGLANVLHRPIILLDSLSGMRSSGDYSATFLPGLIPAEKCTGKDGHLNKPICIAWSSSGRNHYIPLVGIKGAALPKLPMNLLPKAWGVPQDLIKKYIKLEEDGGCVIGGDRSLQDKYLLRLVAAMEEVFMDKHGIHPSLVADVHQYFYRRTGVIGVQPEEVTAAAKKAVMDNRLHKCLLCGALSELHVPPEWLAPGGKLYNLAKSTHGQLRTDKNYSFPLNNLVCSYDSVKDVLVPDYGMSNLTACNWCHGTSVRKVRGDGSIVYLDGDRTNSRSTGGKCGCGFKHFWDGKEYDNLNIDGAHAQRVGDVQGQESESQLPTKIILTGQKTKTLHKEELNMSKTERTIQQNITEQASVMQKRKTEKLKQEQKGQPRTVSPSTIRDGPSSAPATPTKAPYSPTTSSKAEGGQSAAAHSAHTVKQEDIAVTGKLSSKELQEQAEKEMYSLCLLATLMGEDVWSYAKGLPHMFQQGGVFYSIMKKTMGMADGKHCTFPHLPGKTFVYNASEDRLELCVDAAGHFPIGPDVEDLVKEAVSQVRAEATTRSRESSPSHGLLKLGSGGVVKKKSEQLHNVTAFQGKGHSLGTASGNPHLDPRARETSVVRKHNTGTDFSNSSTKTEPSVFTASSSNSELIRIAPGVVTMRDGRQLDPDLVEAQRKKLQEMVSSIQASMDRHLRDQSTEQSPSDLPQRKTEVVSSSAKSGSLQTGLPESFPLTGGTENLNTETTDGCVADALGAAFATRSKAQRGNSVEELEEMDSQDAEMTNTTEPMDHS
modifications: BODIPY, non-site-selective labelling, DOL 0.44, in the TR-FRET binding assay

initial velocity of Ub-Rho hydrolysis by VCPIP1^ΔUBX (62.5 nM enzyme) in the presence of VCP (v0 = 754.0 RFU/min without VCP); no effect of VCP: 733 RFU/min
B2: VCPIP1^ΔUBX (aa Δ773-852) (enzyme)
chain: MSQPPPPPPPLPPPPPPPEAPQTPSSLASAAASGGLLKRRDRRILSGSCPDPKCQARLFFPASGSVSIECTECGQRHEQQQLLGVEEVTDPDVVLHNLLRNALLGVTGAPKKNTELVKVMGLSNYHCKLLSPILARYGMDKQTGRAKLLRDMNQGELFDCALLGDRAFLIEPEHVNTVGYGKDRSGSLLYLHDTLEDIKRANKSQECLIPVHVDGDGHCLVHAVSRALVGRELFWHALRENLKQHFQQHLARYQALFHDFIDAAEWEDIINECDPLFVPPEGVPLGLRNIHIFGLANVLHRPIILLDSLSGMRSSGDYSATFLPGLIPAEKCTGKDGHLNKPICIAWSSSGRNHYIPLVGIKGAALPKLPMNLLPKAWGVPQDLIKKYIKLEEDGGCVIGGDRSLQDKYLLRLVAAMEEVFMDKHGIHPSLVADVHQYFYRRTGVIGVQPEEVTAAAKKAVMDNRLHKCLLCGALSELHVPPEWLAPGGKLYNLAKSTHGQLRTDKNYSFPLNNLVCSYDSVKDVLVPDYGMSNLTACNWCHGTSVRKVRGDGSIVYLDGDRTNSRSTGGKCGCGFKHFWDGKEYDNLPEAFPITLEWGGRVVRETVYWFQYESDSSLNSNVYDVAMKLVTKHFPGEFGSEILVQKVVHTILHQTAKKNPDDYTPVNIDGAHAQRVGDVQGQESESQLPTKIILTGQKTKTLHKEELNMSKTERTIQQNITEQASVMQKRKTEKLKQEQKGQPRTVSPSTIRDGPSSAPATPTKAPYSPTTSSKAEGGQSAAAHSAHTVKQEDIAVTGKLSSKELQEQAEKEMYSLCLLATLMGEDVWSYAKGLPHMFQQGGVFYSIMKKTMGMADGKHCTFPHLPGKTFVYNASEDRLELCVDAAGHFPIGPDVEDLVKEAVSQVRAEATTRSRESSPSHGLLKLGSGGVVKKKSEQLHNVTAFQGKGHSLGTASGNPHLDPRARETSVVRKHNTGTDFSNSSTKTEPSVFTASSSNSELIRIAPGVVTMRDGRQLDPDLVEAQRKKLQEMVSSIQASMDRHLRDQSTEQSPSDLPQRKTEVVSSSAKSGSLQTGLPESFPLTGGTENLNTETTDGCVADALGAAFATRSKAQRGNSVEELEEMDSQDAEMTNTTEPMDHS
modifications: BODIPY, non-site-selective labelling, DOL 0.54, in the TR-FRET binding assay
